# Source: patent publication US20110243955A1 (FUSION ANTIBODIES, published 2011)
# B1: Cat S inhibitory monoclonal antibody Mab 1E11 (antibody, V domains shown)
# VH: VQLQESGGVLVKPGGSLKLSCAASGFAFSSYDMSWVRQTPEKRLEWVAYITTGGVNTYYPDTVKGRFTISRDNAKNTLYLQMSSLKSEDTAMYYCARHSYFDYWGQGTTVTVSS
# VL: DVLMTQTPLSLPVSLGDQASISCRSSQSLVHSNGNTYLHWYLQKPGQSPKLLIYKVSNRFSGVPDRFSGSGSGTDFTLKISRVEAEDLGVYFCSQTTHVPPTFGSGTKLEIKR
# notes: Whole mouse monoclonal antibody from a hybridoma (BALB/C mice), purified from supernatant; also called Cat S MAb1
# How the values were obtained:
# [1] = biological target: human cathepsin B (recombinant) (human, UniProt P07858 80-333); assay: western blot of recombinant cathepsins
# Method: (§1) FIG. 15 MAb1 specifically binds Cat S on western blot. The antibody was used to probe against human cathepsin B, L, S and K (100 ng each).
# (§2) Western blots were performed as described before to show specificity of the antibody binding to Cat S and not to CatB, L or K. Briefly, 100 ng of recombinant Cat S, K, L and B were loaded onto a SDS-PAGE gel, then transferred onto Hybond-C Extra nitrocellulose membrane (Amersham. Biosciences). The membrane was blocked by incubation in PBS/5% marvel for 1 hr at room temperature, after which it was rinsed briefly in PBS. The monoclonal antibodies were used at a 1:500 dilution in PBS and incubated on the membrane overnight at 4° C. while gently rocking. The blot was then rinsed three times with PBS/1% marvel and 0.1% Tween-20 and then incubated with the goat anti-mouse HRP conjugated secondary antibody at a 1:3000 dilution for 1 hr at room temperature while shaking. The blot was then rinsed three times with the PBS/1% marvel and 0.1% Tween-20 solution, followed by a short rinse in PBS. The blot was incubated with ECL plus substrate (Amersham Biosciences) for 5 mins at room temperature before development using Kodak photographic film under safe light conditions (FIG. 15).
# [2] = biological target: T1, human cathepsin L (recombinant) (human, UniProt P07711 114-333, limits assumed); assay: western blot of recombinant cathepsins
# T1 construct: Called 'purified CatL' in the activity assay; also called CatL; Cat L
# T1 sequence (P07711 114-333 limits assumed): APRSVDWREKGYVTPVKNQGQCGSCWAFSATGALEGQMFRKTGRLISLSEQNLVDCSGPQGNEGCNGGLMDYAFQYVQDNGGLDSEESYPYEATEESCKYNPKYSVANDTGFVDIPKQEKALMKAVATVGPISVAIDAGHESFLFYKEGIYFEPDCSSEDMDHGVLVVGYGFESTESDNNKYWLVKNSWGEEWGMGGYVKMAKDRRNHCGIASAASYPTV
# Method: as §1, §2
# [3] = biological target: T2, human cathepsin K (recombinant) (human, UniProt P43235 115-329, limits assumed); assay: western blot of recombinant cathepsins
# T2 construct: Called 'purified CatK' in the activity assay; also called CatK; Cat K
# T2 sequence (looked up): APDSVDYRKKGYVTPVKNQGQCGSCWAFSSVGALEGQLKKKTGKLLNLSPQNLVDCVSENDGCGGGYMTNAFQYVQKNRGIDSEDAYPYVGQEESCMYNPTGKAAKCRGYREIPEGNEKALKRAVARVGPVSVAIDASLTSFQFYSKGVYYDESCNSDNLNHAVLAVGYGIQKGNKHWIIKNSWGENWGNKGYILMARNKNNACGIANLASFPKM
# Method: as §1, §2
# [4] = biological target: T3, recombinant human Cat S (Calbiochem) (human, UniProt P25774 115-331, limits assumed); assay: fluorimetric enzyme assay with Cbz-Val-Val-Arg-AMC; progress curves of a slow-binding inhibitor fitted by non-linear regression (Morrison and Walsh, GraFit)
# T3 construct: Bought enzyme used in the fluorimetric activity assays; also called cathepsin S
# T3 sequence (P25774 115-331 limits assumed): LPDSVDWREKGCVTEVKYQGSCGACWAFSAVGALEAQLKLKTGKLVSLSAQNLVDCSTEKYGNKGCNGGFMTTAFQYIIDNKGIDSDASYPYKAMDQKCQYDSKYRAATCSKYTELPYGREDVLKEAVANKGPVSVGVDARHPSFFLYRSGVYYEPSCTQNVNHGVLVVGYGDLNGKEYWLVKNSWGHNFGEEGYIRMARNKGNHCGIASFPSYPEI
# Method: FIG. 12. Quantification of inhibitory activity of Cat S MAb1 (Mab 1E11). Rates from the progress curves of (Mab 1E11) [FIG. 11], which were indicative of a slow binding inhibitor, were fitted by non-linear regression using GraFit software according to the method of Morrison and Walsh, 1988.
# The inhibitory effect of the monoclonal antibodies were determined by a flurometric assay, using a Cat S synthetic substrate Z-Val-Val-Arg-AMC (Bachem) and recombinant human Cat S (Calbiochem). The recombinant Cat S enzyme was activated at 37° C. in sodium acetate buffer (100 mM sodium acetate, 1 mM EDTA, 0.1% Brij90, pH 5.5), and 2 mM dithiothreitol (DTT) for 30 mins prior to assay. Assays were carried out using 190 μl of sodium acetate/DTT buffer (90:1), 1 μl of activated Cat S, 12.5 μl of 10 mM Cbz-Val-Val-Arg-AMC substrate and 50 μl of non-purified monoclonal antibody supernatant. Fluorescence was measured at 375 nm excitation and 460 nm emission wavelengths every 5 mins for 4 hrs (FIG. 8). […]
# The purified monoclonal antibodies were analysed by flurometric assay for quantification of their ability to inhibit the activity of Cat S. The principles of this assay are the same as that previously used. Fluorescence was measured at 375 nm excitation and 460 nm emission wavelengths every minute for 1 hr. […]
binder,measurement,setting,value
B1,binding result,[1],no binding
same,binding result,[2],no binding
same,binding result,[3],no binding
same,Ki,[4],533 nM
